No end group written: not given here. *: point of attachment. Biotin = O=C1N[C@H]2[C@H](CS[C@H]2CCCCC(=O)*)N1; linker = not defined here
How the values were obtained:
[1] = biological target: PKA-phosphorylated full-length Tau (Homo sapiens) (UniProt P10636); assay: SPR Biacore 2000, bivalent IgG1 analyte, ~153 RU PKA-phospho Tau, ligand density 1
[2] = biological target: PKA-phosphorylated full-length Tau (Homo sapiens) (UniProt P10636); assay: SPR Biacore 2000, bivalent IgG1 analyte, ~824 RU PKA-phospho Tau, ligand density 2
Non-phospho. = biological target: T1, Non-phospho. (not fully specified; printed as Biotin - linker - GDTSPRHLSNVSSTGSID; reading uncertain); assay: ELISA: plate coated with 5 µg/ml IgG, 10 nM biotinylated peptide in solution, streptavidin-peroxidase/TMB, absorbance 450 nm
T1 construct: also called non-phosphorylated biotinylated Tau 401-418 peptide
T1 peptide: {Biotin-linker}-GDTSPRHLSNVSSTGSID
Protocol: FIG. 3. Binding of immobilized IgG antibodies to Tau-derived biotinylated peptides containing pS404 and/or pS409 as measured by ELISA. […] 10 nM of the biotinylated peptides shown in FIG. 3, and 5 μg/ml IgG, were used.
Specificity of the top five clones for phosphoserine 404 and phosphoserine 409 was also assessed by ELISA. In one experiment (FIG. 3), Nunc maxisorp microplates were coated with 5 μg/ml IgG in coating buffer (sodium carbonate pH9.6) for 70 minutes at ambient temperature. Non-specific binding sites were blocked with BBT for a minimum of 2 hours then the plates washed and 10 nM biotinylated peptide in BBT added. After 1.5 hours bound peptide was detected by a 65 minute incubation with peroxidase-conjugated Streptavidin and detection with TMB as described above. […] The peptides synthesized and used in this experiment (which correspond to amino acids 401-418 of full-length Tau) have the following amino acid sequences (Table B): […]

[3] = biological target: PKA-phosphorylated full-length Tau (Homo sapiens) (UniProt P10636); assay: ELISA: plate coated with 1 µg/ml PKA-phosphorylated full-length Tau, IgG titrated 0.06 pM to 1 nM, anti-human Fc-peroxidase/TMB, absorbance 450 nm [panel A]
[4] = biological target: PKA-phosphorylated full-length Tau (Homo sapiens) (UniProt P10636); assay: ELISA: plate coated with 0.1 µg/ml PKA-phosphorylated full-length Tau, IgG titrated 0.06 pM to 1 nM, anti-human Fc-peroxidase/TMB, absorbance 450 nm [panel B]

PKA-phosphorylated full-length Tau (Homo sapiens), sequence (P10636 other isoform, or with tags, fused parts or gaps limits assumed): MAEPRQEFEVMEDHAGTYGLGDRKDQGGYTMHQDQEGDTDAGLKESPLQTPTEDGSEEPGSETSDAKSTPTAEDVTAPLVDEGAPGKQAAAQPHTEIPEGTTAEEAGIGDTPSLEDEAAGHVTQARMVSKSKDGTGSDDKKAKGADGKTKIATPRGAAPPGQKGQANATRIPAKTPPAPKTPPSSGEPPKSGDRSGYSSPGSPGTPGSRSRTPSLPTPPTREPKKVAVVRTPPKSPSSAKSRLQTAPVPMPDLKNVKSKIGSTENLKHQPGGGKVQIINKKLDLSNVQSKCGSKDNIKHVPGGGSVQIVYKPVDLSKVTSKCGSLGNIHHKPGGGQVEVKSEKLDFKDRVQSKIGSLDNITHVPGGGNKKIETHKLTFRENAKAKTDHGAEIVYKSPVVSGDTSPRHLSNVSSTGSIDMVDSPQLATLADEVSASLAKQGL

B1: TAM20 IgG1 (antibody, V domains shown)
VH: EVQLVQSGAEVKKPGSSVKVSCKASGYTFTDYYMNWVRQAPGQGLEWIGDINPNRGGTTYNQKFKGRVTITVDKSTSTAYMELSSLRSEDTAVYYCASYYAVGYWGQGTTVTVSS
VL: DIVMTQTPLSLPVTPGEPASISCRSSQSLVHSHGRTYLHWYLQKPGQSPQLLIYKVSNRFFGVPDRFSGSGSGTDFTLKISRVEAEDVGVYFCSQTRHFPYTFGGGTKVEIKR
[1]
  Kd: 0.8 nM
  koff: 0.0012 s⁻¹
  kon: 1.6e+06 M⁻¹ s⁻¹
[2]
  Kd: 0.2 nM
  koff: 0.0003 s⁻¹
  kon: 1.6e+06 M⁻¹ s⁻¹
Non-phospho.
  binding result: no binding (tested: 10 nM)
[3]
  EC50 (read off the curve): 0.006 nM
[4]
  EC50 (read off the curve): 0.02 nM

Reference: patent publication US20160024193A1 (AC IMMUNE S A, published 2016)
